T1: potato lectin (Solanum Tuberosum Lectin, Vector labs, cat#: L-1160) (Solanum tuberosum (potato), UniProt Q9S8M0 23-323)
T1 construct: Bought glycoprotein coated on ELISA wells as an unrelated control compound
T1 sequence: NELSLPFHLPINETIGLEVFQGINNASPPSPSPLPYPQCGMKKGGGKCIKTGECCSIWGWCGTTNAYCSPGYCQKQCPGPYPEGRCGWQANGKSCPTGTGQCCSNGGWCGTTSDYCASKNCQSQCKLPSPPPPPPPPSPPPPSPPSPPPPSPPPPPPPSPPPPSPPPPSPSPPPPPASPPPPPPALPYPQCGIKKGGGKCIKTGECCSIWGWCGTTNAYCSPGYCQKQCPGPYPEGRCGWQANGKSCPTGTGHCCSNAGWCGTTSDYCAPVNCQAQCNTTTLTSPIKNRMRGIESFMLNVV

B1: anti-GlcCer VHH 56F11 (VHH)
VHH: QVQLQESGGGLVQSGGSLRLSCVHSKTTFTRNAMGWYRQALGKERELVATITSGGTTNYADSVKGRFTISMDSAKNTVYLQMNSLKPEDTAVYYCNVNTRRIFGGTVREYWGQGTQVTVSS
notes: Llama VHH raised against fungal glucosylceramide, made in E. coli and purified through its hexahistidine tag; Tested as purified VHH at 1 ug/ml; not shown: C-terminal (His)6 and c-myc peptide tags coded by vector pASF20
B2: anti-GlcCer VHH 41D01 (VHH)
VHH: QVQLQESGGGLVQAGGSLRLSCAASGRTFSRYGMGWFRQLPGKQRELVTSITRGGTTTYADSVKGRFTISRDNAKNTVYLQMNSLKPEDTAVYYCNARSIWRDYWGQGTQVTVSS
notes: Llama VHH raised against fungal glucosylceramide, made in E. coli and purified through its hexahistidine tag; Tested as purified VHH at 0.1 ug/ml; also called GlcCer-specific VHH 41D01; not shown: C-terminal (His)6 and c-myc peptide tags coded by vector pASF20

Molecular target: T1, potato lectin (Solanum Tuberosum …)
Experiment: ELISA, purified VHH on wells coated with potato lectin, OD 405 nm

| Binder | binding result |
| --- | --- |
| B1 | no binding (tested: 1 µg/ml) |
| B2 | no binding (tested: 0.1 µg/ml) |

From patent publication US20160145325A1 (AGROSAVFE N V, published 2016)
